Data as given in patent US20140004122A1, “METHODS FOR TREATING OR PREVENTING CHOLESTEROL RELATED DISORDERS” (AMGEN INC., priority 2011, published 2014).
Marks after values point to notes of the source that are not given here.

How the values were obtained:
human PCSK9 = human PCSK9 (Homo sapiens, UniProt Q8NBP7); test: BIAcore affinity analysis; format: binding; settings: pH 7.4; read-out: KD hPCSK9
Protocol: Briefly, the surface plasmon resonance experiments were performed using Biacore 2000 optical biosensors (Biacore, GE Healthcare, Piscataway, N.J.). […] The concentration of PCSK9 protein was varied at 2 fold intervals (the analyte) and was injected over the immobilized antibody surface (at a flow rate of 100 μl/min for 1.5 minutes). Fresh HBS-P buffer (pH 7.4, 0.01 M Hepes, 0.15 M NaCl, 0.005% surfactant P-20, Biacore) supplemented with 0.01% BSA was used as binding buffer.
The binding signal obtained was proportional to the free PCSK9 in solution.
Antibody binding kinetic parameters including ka (association rate constant), kd (dissociation rate constant), and KD (dissociation equilibrium constant) were determined using the BIA evaluation 3.1 computer program (BIAcore, Inc. Piscataway, N.J.).

[1] = tested on: human patient exhibiting a risk of developing hypercholesterolemia; test: Prevention of hypercholesterolemia (Example 19); format: in vivo; settings: regularly administered (e.g., one time weekly)
Source text: At periodic times during the treatment, the patient is monitored to determine whether serum cholesterol levels have decreased.

healthy subjects = test: Phase 1 ascending single dose study (Example 20); format: in vivo, human
[2] = tested on: subjects with heterozygous familial hypercholesterolemia (HeFH); test: 12 week study in heterozygous familial hypercholesterolemia (Example 22); format: in vivo, human; settings: preliminary
Protocol: This study is a double-blind, randomized, stratified, placebo-controlled clinical trial evaluating the safety, tolerability, and efficacy of monocloncal antibody 21B12 in subjects having a diagnosis of HeFH. A total enrollment of 150 subjects is planned. […] Randomization will be stratified by screening LDL-C level (<130 mg/dL [3.4 mmol/L] vs≧130 mg/dL) and ezetimibe use at baseline (yes vs no). Randomization should occur within 5-10 days of the screening LDL-C evaluation used to determine eligibility. Monoclonal antibody, 21B12, and placebo will be blinded. Study visits are at weeks 2, 4, 8, and 12. […] The end-of-study (EOS) visit and the last evaluation of lipids is at week 12.
Males and females, ≧18 to ≦75 years of age, and with a diagnosis of heterozygous familial hypercholesterolemia by the diagnostic criteria of the Simon Broome Register Group (SBRG), are eligible for this study. For enrollment, subjects must be on an approved statin, with stable dose(s) for all allowed (eg, ezetimibe, bile-acid sequestering resin, stanols, or regulatory-approved and marketed niacin (eg, Niaspan or Niacor)) lipid-regulating drugs for at least 4 weeks before LDL-C screening and, in the opinion of the investigator, not requiring uptitration. Fasting LDL-C must be ≧100 mg/dL (2.6 mmol/L) and fasting triglycerides ≦400 mg/dL (4.5 mmol/L) by central laboratory at screening.

[3] = tested on: hypercholesterolemic subjects with a 10 year Framingham risk score of 10% or less; test: 12 week monotherapy dose-ranging study (Example 24); format: in vivo, human; settings: for mean percent reduction from baseline in LDL-C: preliminary; for Least squares mean percent change from baseline (%) in LDL-C / Treatment difference vs ezetimibe (%) in LDL-C / Treatment difference vs placebo (%) in LDL-C: week 12; for Treatment difference vs ezetimibe (%) in LDL-C / Treatment difference vs placebo (%) in LDL-C: P < 0.001
Protocol: Ezetimibe was not blinded. The end-of-study visit and the last estimation of lipids was at week 12 for subjects on Q4W IP schedule or on ezetimibe and week 14 for subjects on Q2W IP schedule.
Males and females, ≧18 to ≦75 years of age, were eligible for this study. Fasting LDL-C was ≧100 mg/dL (2.6 mmol/L) and <190 mg/dL (4.9 mmol/L) and fasting triglycerides ≦400 mg/dL (4.5 mmol/L) by central laboratory at screening.
The primary endpoint was the percent change from baseline in LDL-C at week 12. Secondary endpoints included percent changes in apolipoprotein B (ApoB), lipoprotein (a) (Lp(a)), and in the ratio of total cholesterol to high-density lipoprotein (HDL)-C. Tolerability and safety were also evaluated.

[4] = 350 mg Q4W SC, end of the dosing interval

Sequence of human PCSK9 (Q8NBP7 153-692): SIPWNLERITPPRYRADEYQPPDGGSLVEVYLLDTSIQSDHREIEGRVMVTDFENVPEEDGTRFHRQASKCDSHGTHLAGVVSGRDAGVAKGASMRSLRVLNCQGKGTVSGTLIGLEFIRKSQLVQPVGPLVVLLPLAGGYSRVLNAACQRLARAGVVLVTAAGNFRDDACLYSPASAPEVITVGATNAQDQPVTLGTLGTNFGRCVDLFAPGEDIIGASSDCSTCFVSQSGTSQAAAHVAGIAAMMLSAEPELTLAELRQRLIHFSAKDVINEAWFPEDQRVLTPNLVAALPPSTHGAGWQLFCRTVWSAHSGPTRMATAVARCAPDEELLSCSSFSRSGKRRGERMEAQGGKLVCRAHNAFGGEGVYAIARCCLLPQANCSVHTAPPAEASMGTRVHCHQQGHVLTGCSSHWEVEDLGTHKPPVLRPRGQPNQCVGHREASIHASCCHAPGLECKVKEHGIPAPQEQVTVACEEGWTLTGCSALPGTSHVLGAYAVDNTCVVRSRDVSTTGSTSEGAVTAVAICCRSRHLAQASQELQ

B1: 21B12: human anti-PCSK9 monoclonal antibody; light/heavy variable region SEQ ID NO 23/49 (antibody, listed as Homo sapiens, V domains shown)
VH: QVQLVQSGAEVKKPGASVKVSCKASGYTLTSYGISWVRQAPGQGLEWMGWVSFYNGNTNYAQKLQGRGTMTTDPSTSTAYMELRSLRSDDTAVYYCARGYGMDVWGQGTTVTVSS
VL: QSALTQPASVSGSPGQSITISCTGTSSDVGGYNSVSWYQQHPGKAPKLMIYEVSNRPSGVSNRFSGSKSGNTASLTISGLQAEDEADYYCNSYTSTSMVFGGGTKLTVL
B1 was tested, and the Kd (human PCSK9) was 0.19 nM, the “serum cholesterol levels vs subjects that are not treated” value [1] was “lowered serum cholesterol levels” and the “AUC0-inf (median)” value (healthy subjects; 420 mg IV group) was 1550 µg·days/mL. The “median maximum observed concentration (Cmax)” value (healthy subjects; 420 mg IV group) was 139 µg/mL, the “subjects with treatment-related adverse events” value (healthy subjects; 18 of 42 subjects) was 43% and the “subjects with treatment-emergent adverse events” value (healthy subjects; 21B12 at any dose, 29 of 42 subjects) was 69%. The “anti-21B12 antibodies in serum” value (healthy subjects; all 42 subjects who received 21B12) was “negative”, the “effects on laboratory variables, ECGs, vital signs” value (healthy subjects; in vivo) was “no trends indicative of clinically important effects” and the tolerability (healthy subjects; single SC and IV doses up to 420 mg) was “well tolerated”. For the same molecule, the serious adverse events (healthy subjects; single SC or IV dose) was “No adverse events were reported as serious”, the “LDL-C nadir observed within (after dosing)” value (healthy subjects; single dose) was at most 2 weeks and the elimination (healthy subjects; single dose SC or IV) was “nonlinear (concentration-dependent) elimination”. For the same molecule, the “suppression of PCSK9” value (healthy subjects; single doses ≧70 mg SC) was “Complete suppression of PCSK9”, the “LS mean percent increase from baseline in HDL-C” value [2, 4] was 15.39% and the “LS mean percent reduction from baseline in LDL-C” value [2, 4] was 38.46%. For the same molecule, the “LS mean percent reduction from baseline in Lp(a)” value [2, 4] was 21.69%, the “LS mean percent reduction from baseline in VLDL-C” value [2, 4] was 17.16% and the “LS mean percent reduction from baseline in non-HDL cholesterol” value [2, 4] was 36.16%. The “LS mean percent reduction from baseline in total cholesterol” value [2, 4] was 24.82%, the “LS mean percent reduction from baseline in triglycerides” value [2, 4] was 17.24% and the “LS mean percent increase from baseline in HDL-C” value ([2]; 420 mg Q4W SC) was 6.77%. The “LS mean percent reduction from baseline in LDL-C” value ([2]; 420 mg Q4W SC) was 45.68%, the “LS mean percent reduction from baseline in Lp(a)” value ([2]; 420 mg Q4W SC) was 28.23% and the “LS mean percent reduction from baseline in VLDL-C” value ([2]; 420 mg Q4W SC) was 18.49%. For the same molecule, the “LS mean percent reduction from baseline in non-HDL cholesterol” value ([2]; 420 mg Q4W SC) was 41.81%, the “LS mean percent reduction from baseline in total cholesterol” value ([2]; 420 mg Q4W SC) was 29.45% and the “LS mean percent reduction from baseline in triglycerides” value ([2]; 420 mg Q4W SC) was 4.56%. The “mean percent reduction from baseline in LDL-C” value ([3]; 70 mg (Q2W), end of the dosing interval) was 41.21%, the “mean percent reduction from baseline in LDL-C” value ([3]; 105 mg (Q2W), end of the dosing interval) was 45.44% and the “mean percent reduction from baseline in LDL-C” value ([3]; 140 mg (Q2W)) was 51.56%. For the same molecule, the “mean percent reduction from baseline in LDL-C” value ([3]; 280 mg (Q4W), end of the dosing interval) was 37.53%, the “mean percent reduction from baseline in LDL-C” value ([3]; 350 mg, end of the dosing interval) was 42.16% and the “mean percent reduction from baseline in LDL-C” value ([3]; 420 mg) was 47.52%. For the same molecule, the “LDL-C reductions from baseline greater than ezetimibe” value ([3]; final data) was 37%, the “change in LDL-C from baseline to week 12 greater than with placebo” value ([3]; final data) was “up to 72 mg/dL” and the “mean reduction from baseline for ApoB” value ([3]; final data) was “up to 44%”. For the same molecule, the “mean reduction from baseline for Lp(a)” value ([3]; final data) was “up to 29%”, the “least-squares (LS) mean percent reduction from baseline in LDL-C” value ([3]; week 12, final data) was “up to 51%” and the “Least squares mean percent change from baseline (%) in LDL-C” value ([3]; Q2W 70 mg SC (N = 45)) was −40.98%. The “Treatment difference vs ezetimibe (%) in LDL-C” value ([3]; Q2W 70 mg) was −26.73* %, the “Treatment difference vs placebo (%) in LDL-C” value ([3]; Q2W 70 mg) was −37.27* % and the “Least squares mean percent change from baseline (%) in LDL-C” value ([3]; Q2W 105 mg SC (N = 46)) was −43.87%. The “Treatment difference vs ezetimibe (%) in LDL-C” value ([3]; Q2W 105 mg) was −29.62* %, the “Treatment difference vs placebo (%) in LDL-C” value ([3]; Q2W 105 mg) was −40.17* % and the “Least squares mean percent change from baseline (%) in LDL-C” value ([3]; Q2W 140 mg SC (N = 45)) was −50.93%. For the same molecule, the “Treatment difference vs ezetimibe (%) in LDL-C” value ([3]; Q2W 140 mg) was −36.68* %, the “Treatment difference vs placebo (%) in LDL-C” value ([3]; Q2W 140 mg) was −47.23* % and the “Least squares mean percent change from baseline (%) in LDL-C” value ([3]; Q4W 280 mg SC (N = 45)) was −39.02%. For the same molecule, the “Treatment difference vs ezetimibe (%) in LDL-C” value ([3]; Q4W 280 mg) was −25.17* %, the “Treatment difference vs placebo (%) in LDL-C” value ([3]; Q4W 280 mg) was −43.57* % and the “Least squares mean percent change from baseline (%) in LDL-C” value ([3]; Q4W 350 mg SC (N = 45)) was −43.20%. The “Treatment difference vs ezetimibe (%) in LDL-C” value ([3]; Q4W 350 mg) was −29.34* %, the “Treatment difference vs placebo (%) in LDL-C” value ([3]; Q4W 350 mg) was −47.74* % and the “Least squares mean percent change from baseline (%) in LDL-C” value ([3]; Q4W 420 mg SC (N = 45)) was −47.98%. The “Treatment difference vs ezetimibe (%) in LDL-C” value ([3]; Q4W 420 mg) was −34.14* % and the “Treatment difference vs placebo (%) in LDL-C” value ([3]; Q4W 420 mg) was −52.53* %.
